Legend:
human α9 integrin = target: T1, human α9 integrin (human, UniProt Q13797 30-1035); assay: cell-based or functional assay
T1 sequence: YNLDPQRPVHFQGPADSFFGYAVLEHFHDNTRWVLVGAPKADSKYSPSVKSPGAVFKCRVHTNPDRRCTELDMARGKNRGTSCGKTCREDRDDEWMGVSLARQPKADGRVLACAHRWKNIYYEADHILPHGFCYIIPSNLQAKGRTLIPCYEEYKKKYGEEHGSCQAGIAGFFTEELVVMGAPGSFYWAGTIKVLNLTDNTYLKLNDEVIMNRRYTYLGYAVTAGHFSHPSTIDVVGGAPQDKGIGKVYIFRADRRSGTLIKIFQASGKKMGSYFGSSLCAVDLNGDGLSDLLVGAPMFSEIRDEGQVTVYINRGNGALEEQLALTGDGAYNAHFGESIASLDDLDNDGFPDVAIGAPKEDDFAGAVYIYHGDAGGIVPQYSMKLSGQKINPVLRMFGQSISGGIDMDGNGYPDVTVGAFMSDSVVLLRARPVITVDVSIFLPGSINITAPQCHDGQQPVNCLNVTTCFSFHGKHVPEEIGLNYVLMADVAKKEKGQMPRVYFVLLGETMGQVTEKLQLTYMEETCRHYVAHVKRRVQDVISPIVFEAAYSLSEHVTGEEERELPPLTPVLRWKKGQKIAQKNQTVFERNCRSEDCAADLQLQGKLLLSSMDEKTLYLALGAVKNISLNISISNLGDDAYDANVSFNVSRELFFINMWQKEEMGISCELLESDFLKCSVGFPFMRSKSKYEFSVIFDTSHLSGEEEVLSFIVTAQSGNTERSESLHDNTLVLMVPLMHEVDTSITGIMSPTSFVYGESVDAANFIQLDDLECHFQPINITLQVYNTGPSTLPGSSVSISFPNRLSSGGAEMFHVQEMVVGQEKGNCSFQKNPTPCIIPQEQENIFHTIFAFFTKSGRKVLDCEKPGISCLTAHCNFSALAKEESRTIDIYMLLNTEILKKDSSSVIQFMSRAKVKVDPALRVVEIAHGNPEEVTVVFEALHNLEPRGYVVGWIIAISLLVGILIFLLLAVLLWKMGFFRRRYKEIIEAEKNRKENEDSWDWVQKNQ

mouse α9 integrin = target: T2, mouse α9 integrin (mouse, UniProt B8JK39 29-1036); assay: cell-based or functional assay
T2 chain: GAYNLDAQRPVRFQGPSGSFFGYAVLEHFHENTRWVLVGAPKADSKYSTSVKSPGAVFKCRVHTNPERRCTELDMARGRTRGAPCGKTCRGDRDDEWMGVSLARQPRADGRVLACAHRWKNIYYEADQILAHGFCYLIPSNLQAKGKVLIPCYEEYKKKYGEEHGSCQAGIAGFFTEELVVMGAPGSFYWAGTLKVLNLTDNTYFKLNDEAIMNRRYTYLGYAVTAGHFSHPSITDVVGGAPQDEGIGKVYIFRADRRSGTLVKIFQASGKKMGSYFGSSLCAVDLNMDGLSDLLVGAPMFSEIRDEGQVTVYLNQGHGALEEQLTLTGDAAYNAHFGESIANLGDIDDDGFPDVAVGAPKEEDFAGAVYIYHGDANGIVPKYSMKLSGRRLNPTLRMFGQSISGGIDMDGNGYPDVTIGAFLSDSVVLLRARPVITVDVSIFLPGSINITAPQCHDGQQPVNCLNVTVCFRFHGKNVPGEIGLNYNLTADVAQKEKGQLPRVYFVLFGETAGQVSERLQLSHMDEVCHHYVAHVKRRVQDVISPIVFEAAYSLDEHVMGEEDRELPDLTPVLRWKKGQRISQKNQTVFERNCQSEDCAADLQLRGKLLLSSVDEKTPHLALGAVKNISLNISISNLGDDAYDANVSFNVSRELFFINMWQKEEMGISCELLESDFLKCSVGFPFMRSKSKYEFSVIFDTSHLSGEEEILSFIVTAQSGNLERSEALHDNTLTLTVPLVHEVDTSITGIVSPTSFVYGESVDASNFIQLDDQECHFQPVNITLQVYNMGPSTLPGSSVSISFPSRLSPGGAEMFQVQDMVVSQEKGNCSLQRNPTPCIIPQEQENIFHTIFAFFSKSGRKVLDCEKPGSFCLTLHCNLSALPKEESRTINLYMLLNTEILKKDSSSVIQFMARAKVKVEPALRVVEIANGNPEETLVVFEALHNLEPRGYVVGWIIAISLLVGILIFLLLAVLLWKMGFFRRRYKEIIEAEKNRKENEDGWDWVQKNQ

IC50 of inhibition of α9-dependent cell adhesion (human α9 integrin): 48.5 µg/mL
IC50 of inhibition of α9-dependent cell adhesion (mouse α9 integrin): 0.34 µg/mL
B1: MA9-413 scFv-Fc (Fc fusion)
scFv: EVQLVESGGGVVRPGGSLRLSCAASGFAFGDYGMSWVRQAPGKGLEWVSGINWNGGSTGYADSVKGRFTTSRDNAKNSLYLQMNSLRAEDTALYYCARDENYDILTGYYYYGMDVWGQGTTVTVSSGGGGSGGGGSGGGGSQSVVTQPPSVSAAPGQKVTISCSGSSSNIGNNYVSWYQQLPGTAPKLLIYDNNKRPSGIPDRFSASKSGTSATLGITGLQTGDEADYYCGTWDSSLTVWAFGGGTKLTVLG
notes: Divalent scFv-Fc with mouse IgG1 Fc, expressed in CHO-DG44; also called ANM-2; not shown: Fc region of mouse IgG1 and its junction to the scFv
